Patent publication US10813788B2, “Implantable therapeutic device” (ForSight Vision4, Inc., priority 2009, dated 2020)
“And” between values parts separate entries of the source, which are not always exact repeats. Identical values can stand only once. Like-named read-outs stand apart in the source and are kept apart here.

Columns and labels:
[1] = amino acid side chain; cited from earlier work
[2] = Solubility of triamcinolone acetonide; details: suspension, in the buffer at 37° C. when implanted
[3] = Osmolarity of saline and commercial formulations (Table 1B, calculations); format: physicochemical; details: Summary of Calculations
Excerpt: The formulation of therapeutic agent injected into therapeutic device 100 may comprise many known formulations of therapeutic agents, and the formulation therapeutic agent comprises an osmolarity suitable for release for an extended time from device 100.
The vitreous humor of the eye comprises an osmolarity of about 290 mOsm to about 320 mOsm. Formulations of therapeutic agent having an osmolarity from about 280 mOsm to about 340 mOsm are substantially isotonic and substantially iso-osmotic with respect to the vitreous humor of the eye. Although the formulations listed in Table 1B are substantially iso-osmotic and isotonic with respect to the vitreous of the eye and suitable for injection into the therapeutic device, the formulation of the therapeutic agent injected into the therapeutic device can be hypertonic (hyper-osmotic) or hypotonic (hypo-osmotic) with respect to the tonicity and osmolarity of the vitreous. […]

[4] = Measured release of Avastin through porous frit structures, Examples 12-13; format: physicochemical
[5] = as above; format: physicochemical; details: for RRI (mm): single devices; for determined RRI: reservoir 20 uL
Excerpt: For the analysis of data up to 130 days, the first data point is excluded from the fit because the model assumes the maximum delivery rate occurs at time zero while there is some startup time often associated with measured release profiles. The startup time may be related to the time it takes to displace all of the air in the frit. Use of different techniques to displace the air in the frit may reduce the startup time.

[6] = RRI for Avastin of porous frits characterised by gas flow, Example 17C (Table 7); format: physicochemical
Excerpt: The flow through the porous structure can be measured with a decay time of the gas pressure, for example with the flow rate across the porous structure with a pressure drop across the porous frit structure, as described herein. The flow rate and RRI can be determined based on the media grade of the material, for example as commercially available media grade material available from Mott Corp. The therapeutic agent can be measured through the porous structure, or a similar test molecule. […] Based on the teachings described herein, a person of ordinary skill in the art can conduct experiments to determine empirically the correspondence of flow rate with a gas to the release rate of the therapeutic agent.

[7] = cited from earlier work; for half-life in the vitreous: rabbit and monkey
[8] = Measured release of ranibizumab 100 mg/mL from devices with porous titanium frit, device half life 250 days, Example B; format: physicochemical; details: for 100 mg/mL Rate, Average: devices with 250 day half life, n = 5
Protocol: The intended RRI was about 0.008 based on gas flow measurements and manufacturing as described herein. The therapeutic device reservoir volume was about 25 uL.
The formulation was filled into five devices and all underwent drug release testing for 180 days.

[9] = Measured release of ranibizumab 40 and 100 mg/mL from devices with porous titanium frit, device half life 100 days, Example A; format: physicochemical; details: for RRI (mm), Mean: 25 uL device, titanium frit about 0.04 in thick, OD about 0.03 in; for 40 mg/mL Rate, Average / 100 mg/mL Rate, Average: devices with 100 day half life, unit not given
Excerpt: No. 2010/0015157, entitled “Antibody Formulations”, the full disclosure of which is incorporated herein by reference.
Devices were fabricated using the following method. A vessel was made from two subassemblies and a porous frit structure as described herein. […] The intended RRI was about 0.02 based on gas flow measurements and manufacturing as described herein. The implantable devices were manufactured in accordance with the teachings as described herein.
Devices were filled with formulation using a 33 G needle (TSK) and a standard tuberculin 1-cc syringe (BD). Excess liquid that had exited the porous sintered frit structure during filling was removed by use of a lab tissue and submerging in phosphate buffered saline (PBS, Sigma) and 0.02% sodium azide as a preservative. Each device was suspended in the center of a 1.5 mL microcentrifuge tube by use of a fixture. The tube was filled with 0.5 mL receiver fluid; i.e., PBS that had been degassed to minimize bubble formation. At selected times, the device was removed from the receiver fluid and placed in a new tube containing fresh receiver fluid. […] For the later time points, the sample concentrations were higher and concentration was determined by UV (Perkin Elmer Lambda 35). Drug release rates were calculated from measured concentration, the volume of the receiver fluid and the duration of the collection interval. Drug release rate profiles were plotted at the average elapsed time for each collection interval. RRI was determined via a least squares fit to the model.
Each formulation was filled into ten devices. Some devices were stopped at 3 and 4 months (n=3 each), leaving four that underwent drug release testing for 180 days.

[10] = tested on: size of the lesion / retinal thickness in wet AMD (OCT); format: in vivo, human; details: for Treatment Effect Observed?: OCT decrease in size of the lesion
Excerpt: OCT (Optical Coherence Tomography) imaging was used to assess the condition of the region of the macula at the back surface of the treated eye. The OCT technique relies on the measurement of certain properties of light (e.g. echo time, intensity of reflection) that has been directed at the area of study and can measure very small amounts of reflected light. Because these cellular features are essentially transparent it is possible to use OCT methodology to generate three dimensional representations of the area.
The regions of interest were analyzed with a two dimensional representation of the cross section of the retinal wall at one longitudinal scan location of the OCT image. In these “OCT scan” images is it possible to interrogate very local areas of interest more specifically. The OCT scans were carefully selected to directly compare the thickness and anatomical structure of specific sites within a lesion, pre and post treatment, for the purpose of assessing the effect of injected drug including a reduction in sub-retinal fluid.
The OCT images were measured the day after injection and at 2-3 days post injection. […]

[11] = human eye; cited from earlier work
[12] = Measured release of Lucentis through porous frit structures, Example 15B; format: physicochemical; details: 10 mg/mL Lucentis, 30 uL, 37 C
Excerpt: All porous frit structures are 316L SS, Mott Corporation.
The diameter ranged from 0.031″ to 0.038″, and the length ranged from 0.029 to 0.049. The media grade ranged from 0.1 to 0.3, and the RRI ranged from 0.014 to 0.090.
Although some of the measurements were excluded, this exclusion is appropriate and associated with in vitro testing conditions that differ substantially from the in vivo model. Five devices were excluded due to bubble growth (10%), and four were excluded due to receiver volume issues at one timepoint for that device (8%). The latter can be an experimental error associated with the volume of the receiver below the assumed value due to evaporation from inadequately sealed vials or due to pipetting error. In some instances the in vitro experimental test apparatus can be sensitive to bubble formation that may differ substantially from the in vivo model as the living eye can resorb oxygen from the therapeutic devices. Bubbles can form as receiver fluid is heated to 37° C. and gas concentrations are greater than their solubilities at 37° C. To minimize the occurrence of bubble formation, receiver solutions were degassed before insertion of the devices.

[13] = Measured release of ranibizumab 40 and 100 mg/mL from a population of devices, Example C; format: physicochemical; details: at 15 weeks, 25 uL, RRI 0.02
Protocol: Therapeutic devices having stainless steel porous frit structures and formulations were prepared in accordance with Examples A and B. The devices had volumes of 25 uL and an RRI of 0.02.
Pressure decay tests of the assembled porous frit structures were conducted as described herein.
Eighteen devices were injected with the 100 mg/mL formulation and 18 devices were injected with the 40 mg/mL formulation. However, measurements of some devices were stopped for other assays every 4 months so only 6 devices for each formulation have release data through 180 days. The rate of release was measured for 16 weeks, and the amount release after each 2 week interval determined. […] The data indicates a measured rate of 3.5 and 8.1 ug/day at 15 weeks, for the 40 and 100 mg/mL formulation injections, respectively.

[14] = tested on: laser photocoagulation treatment-induced Grade IV choroidal neovascularization (CNV) lesions; details: intravitreal injection at all doses tested, cynomolgus monkeys; Z. Yao et al., ARVO 2009; cited from earlier work
[15] = Frit #3 (0.038 x 0.029 in), reservoir 37 uL, up to 130 days

For `N=C(N)NCCC[C@H](N)C(=O)O` [L-Arginine], the “pKa of side chain” value [1] is listed as 12.0.

For `N[C@@H](CC(=O)O)C(=O)O` [L-Aspartic Acid], the “pKa of side chain” value [1] is listed as 3.8.

For `N[C@@H](CS)C(=O)O` [L-Cysteine], the “pKa of side chain” value [1] is listed as 8.28.

With `CC1(C)O[C@@H]2C[C@H]3[C@@H]4CCC5=CC(=O)C=C[C@]5(C)[C@@]4(F)[C@@H](O)C[C@]3(C)[C@]2(C(=O)CO)O1` [triamcinolone acetonide] the solubility [2] was “approximately 19 ug/mL”.

With bevacizumab [Avastin] the “Osm” value [3] was 0.182 M, the “RRI (mm), Mean” value ([4]; Frit #2 (0.031 x 0.049 in), reservoir 37 uL, up to 45 days) was 0.02 mm and 0.020 mm and the “RRI (mm), Mean for SS < 2” value ([4]; Frit #2, reservoir 37 uL, up to 45 days) was 0.014 mm. The “RRI (mm), Mean” value ([4]; Frit #3 (0.038 x 0.029 in), reservoir 37 uL, up to 45 days) was 0.034 mm, the “RRI (mm), Mean” value [4, 15] was 0.035 mm and the “RRI (mm)” value ([4]; Frit #3 (0.038 x 0.029 in, media grade 0.2 um), 25 mg/mL Avastin, reservoir 37 uL, 37 C, up to 45 days, single devices) was 0.027 mm and 0.034 mm and 0.033 mm and 0.044 mm and 0.030 mm and 0.043 mm. For the same compound, the “RRI (mm), Mean for SS < 2” value ([4]; Frit #3, reservoir 37 uL, up to 45 days) was 0.030 mm, the “release rate (RRI)” value ([4]; Frit #5, media grade 0.1, reservoir 20 uL, to about 90 days, FIG. 24A-1) was 0.038 mm and the RRI ([4]; Frit #6, reservoir 20 uL, to about 90 days, FIG. 23A-1) was 0.053 mm. The “RRI (mm), Mean” value ([5]; Frit #2 (0.031 x 0.049 in), reservoir 37 uL, up to 130 days) was 0.024 mm, the “RRI (mm), Mean for SS < 2” value ([5]; Frit #2, reservoir 37 uL, up to 130 days) was 0.014 mm and the “RRI (mm)” value [5, 15] was 0.031 mm and 0.030 mm and 0.029 mm and 0.034 mm and 0.044 mm and 0.045 mm. The “RRI (mm), Mean for SS < 2” value ([5]; Frit #3, reservoir 37 uL, up to 130 days) was 0.030 mm, the “determined RRI” value ([5]; Frit #5 (0.038 x 0.029 in, media grade 0.1 um), 25 mg/mL Avastin, 37 C, FIG. 24A) was 0.03 and the “determined RRI” value ([5]; Frit #6 (0.038 x 0.029 in, media grade 0.2 um), 25 mg/mL Avastin, 37 C, FIG. 23A) was 0.05 mm. For the same compound, the “RRI (mm)” value ([5]; Table 5A: 16 uL reservoir, 25 mg/mL Avastin, Frit #2 (0.031 x 0.049 in, media grade 0.2 um, 316L SS), 37 C) was 0.018 mm and 0.022 mm, the “RRI (mm)” value ([5]; Table 5A: 33 uL reservoir, 25 mg/mL Avastin, Frit #2 (0.031 x 0.049 in, media grade 0.2 um, 316L SS), 37 C) was 0.015 mm and 0.018 mm and the RRI ([6]; Table 7: media grade 0.1, O.D. 0.038 in, length 0.029 in) was 0.014. The RRI ([6]; Table 7: media grade 0.2, O.D. 0.031 in, length 0.049 in) was 0.019 and the RRI ([6]; Table 7: media grade 0.2, O.D. 0.038 in, length 0.029 in) was 0.034 and 0.033.

In the case of ranibizumab [Lucentis], the “Osm” value [3] is listed as 0.289 M, the “Half-life” value ([7]; half-life measured for the monkey, parameter of Simulations 1-5 (Table 4A)) is listed as 63.1 h and the “half-life in the vitreous” value [7] is listed as “two to four”. The “half-life in the vitreous” value ([7]; listed as ranibizumab) was “approximately 3 days”, the “RRI (mm), Mean” value ([8]; 100 mg/mL formulation, 25 uL device, titanium frit 0.031 in thick, OD 0.031) was 0.008 mm and the “100 mg/mL Rate, Average” value ([8]; Day 90) was 5.6 µg/day and 5.59 µg/day. For the same compound, the “100 mg/mL Rate, Average” value ([8]; Day 180) was 4.51 µg/day, the “RRI (mm), Mean” value ([9]; 40 mg/mL formulation) was 0.02 mm and 0.024 mm and the “RRI (mm), Mean” value ([9]; 100 mg/mL formulation) was 0.02 mm and 0.021 mm. The “40 mg/mL Rate, Average” value ([9]; Day 90, n = 7) was 5.52, the “100 mg/mL Rate, Average” value ([9]; Day 90, n = 7) was 9.51 and the “40 mg/mL Rate, Average” value ([9]; Day 180, n = 4) was 2.42. The “100 mg/mL Rate, Average” value ([9]; Day 180, n = 4) was 5.13, the “MIC for a sustained release device” value ([10]; minimum inhibitory concentration in vivo in human patients, indicated by the low dose study) was no more than 1 ug per ml and the “Treatment Effect Observed?” value ([10]; single patient, lowest dose administered 10 μg intravitreal) was “Yes”. The “Treatment Effect Observed?” value ([10]; single patients, lowest dose administered 5 μg intravitreal) was “Yes”, the “Treatment Effect Observed?” value ([10]; single patients, lowest dose administered 20 μg intravitreal) was “Yes” and the “half-life in the vitreous” value [11] was roughly 220 h. The “RRI (mm)” value ([12]; frit 0.031 x 0.049 in, media grade 0.1 um, 2 replicates) was 0.014 mm, the “RRI (mm)” value ([12]; frit 0.031 x 0.049 in, media grade 0.2 um, 12 replicates) was 0.021 mm and the “RRI (mm)” value ([12]; frit 0.038 x 0.029 in, media grade 0.1 um, 5 replicates) was 0.039 mm. For the same compound, the “RRI (mm)” value ([12]; frit 0.038 x 0.029 in, media grade 0.2 um, 14 replicates) was 0.061 mm, the “RRI (mm)” value ([12]; frit 0.038 x 0.029 in, media grade 0.3 um, 6 replicates) was 0.090 mm and the “measured rate of release” value ([13]; 40 mg/mL formulation) was 3.5 µg/day. The “measured rate of release” value ([13]; 100 mg/mL formulation) was 8.1 µg/day and the “development of Grade IV CNV lesions” value [14] was “completely inhibited”.
